The text below walks through data of US20150361184.

The data set has as its target T1, Flag-tagged kinase dead murine DLK S302A, not phosphorylated at T43, S272 and S533.
T1 chain: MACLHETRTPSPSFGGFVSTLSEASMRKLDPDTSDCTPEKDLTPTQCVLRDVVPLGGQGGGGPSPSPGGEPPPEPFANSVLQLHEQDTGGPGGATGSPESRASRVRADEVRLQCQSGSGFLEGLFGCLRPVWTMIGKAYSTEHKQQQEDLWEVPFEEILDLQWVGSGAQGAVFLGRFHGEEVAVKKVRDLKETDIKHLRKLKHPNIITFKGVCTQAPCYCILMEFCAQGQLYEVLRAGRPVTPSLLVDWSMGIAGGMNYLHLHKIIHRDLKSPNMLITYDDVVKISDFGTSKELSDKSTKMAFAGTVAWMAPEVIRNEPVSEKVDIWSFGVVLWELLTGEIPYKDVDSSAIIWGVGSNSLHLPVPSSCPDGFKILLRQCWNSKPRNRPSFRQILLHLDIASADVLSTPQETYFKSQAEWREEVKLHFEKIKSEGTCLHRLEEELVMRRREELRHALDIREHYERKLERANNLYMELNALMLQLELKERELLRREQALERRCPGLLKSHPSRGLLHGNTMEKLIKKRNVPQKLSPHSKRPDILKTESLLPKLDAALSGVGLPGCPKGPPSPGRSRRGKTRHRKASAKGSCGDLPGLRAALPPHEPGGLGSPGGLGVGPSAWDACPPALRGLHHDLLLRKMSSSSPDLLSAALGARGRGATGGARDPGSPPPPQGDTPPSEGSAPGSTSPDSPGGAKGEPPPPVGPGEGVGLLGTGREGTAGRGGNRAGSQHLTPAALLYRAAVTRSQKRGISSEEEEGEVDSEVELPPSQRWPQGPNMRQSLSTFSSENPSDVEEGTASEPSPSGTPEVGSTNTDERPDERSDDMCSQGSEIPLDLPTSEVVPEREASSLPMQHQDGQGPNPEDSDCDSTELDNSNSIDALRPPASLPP

B1: GST-tagged human recombinant JNK3 (Millipore) (protein)
chain: MSLHFLYYCSEPTLDVKIAFCQGFDKQVDVSYIAKHYNMSKSKVDNQFYSVEVGDSTFTVLKRYQNLKPIGSGAQGIVCAAYDAVLDRNVAIKKLSRPFQNQTHAKRAYRELVLMKCVNHKNIISLLNVFTPQKTLEEFQDVYLVMELMDANLCQVIQMELDHERMSYLLYQMLCGIKHLHSAGIIHRDLKPSNIVVKSDCTLKILDFGLARTAGTSFMMTPYVVTRYYRAPEVILGMGYKENVDIWSVGCIMGEMVRHKILFPGRDYIDQWNKVIEQLGTPCPEFMKKLQPTVRNYVENRPKYAGLTFPKLFPDSLFPADSEHNKLKASQARDLLSKMLVIDPAKRISVDDALQHPYINVWYDPAEVEAPPPQIYDKQLDEREHTIEEWKELIYKEVMNSEEKTKNGVVKGQPSPSGAAVNSSESLPPSSSVNDISSMSTDQTLASDTDSSLEASAGPLGCCR
For B1, the “in vitro kinase assay; phosphorylation of T43 and S533 read by blotting with phospho-specific antibodies” value was “both T43 and S533 can be phosphorylated directly by JNK”.
